Consider 4 molecules from patent US20210388110A1.

This experiment deals with extracellular matrix (BD Matrigel). As to the kind of experiment: ECL on Matrigel-coated plate, relative to MRAH-G1d/MRAL-k0.

B1: TR01H040-E2702GsKsc/H0610-E2704sEpsc/L0206-k0 (bispecific antibody, human IgG4 S228P, kappa, N297A)
heavy 1: QVQLVESGGGLVQPGRSLRLSCAASGFTFSNAWMHWVRQAPGKGLEWVAQIKDKSQNYATYYAESVKGRFTISRADSKNSIYLQMNSLKTEDTAVYYCRYVHYSASYGVDAWGQGTTVTVSSASTKGPSVFPLAPCSRSTSESTAALGCLVKDYFPEPVTVSWNSGALTSGVHTFPAVLQSSGLYSLSSVVTVPSSSLGTKTYTCNVDHKPSNTKVDKRVESKYGPPCPPCPAPEFRGGPKVFLFPPKPKDTLMISRTPEVTCVVVDVSQEDPEVQFNWYVDGVEVHNAKTKPREEQFASTYRVVSVLTVLHQDWLNGKEYKCKVSNKGLPSSIEKTISKAKGQPREPQVYTLPPSQKEMTKNQVSLTCLVKGFYPSDIAVEWESNGQPENNYKTTPPVLDSDGSFFLYSKLTVDKSRWQEGNVFSCSVMHEALHNRYTQKSLSLSP
heavy 2: QVQLVQSGAEVKKPGASVKVSCKASGYTFTDYEMHWIRQPPGQGLEWIGAIDGKTPDTAYSQKFKGRVTLTADKSTSTAYMELSSLTSEDTAVYYCTRFYSYTYWGQGTLVTVSSASTKGPSVFPLAPCSRSTSESTAALGCLVKDYFPEPVTVSWNSGALTSGVHTFPAVLQSSGLYSLSSVVTVPSSSLGTQTYTCNVDHKPSNTKVDKRVESKYGPPCPPCPAPEFRGGPKVFLFPPKPKDTLMISRTPEVTCVVVDVSQEDPEVQFNWYVDGVEVHNAKTKPREEQFASTYRVVSVLTVLHQDWLNGKEYKCKVSNKGLPSSIEKTISKAKGQPREPQVYTLPPSQEEMTKNQVSLTCLVKGFYPSDIAVEWESNGQPENNYKTTPPVLDSDGSFFLYSKLTVDKSRWQEGNVFSCSVMHEALHNHYTQESLSLSP
light: DIVMTQSPLSLPVTPGEPASISCRSSQSPVHSNRNTYLHWYQQKPGQAPRLLIYKVSNRFSGVPDRFSGSGSGTDFTLKISRVEAEDVGVYYCYQGTQVPYTFGQGTKLEIKRTVAAPSVFIFPPSDEQLKSGTASVVCLLNNFYPREAKVQWKVDNALQSGNSQESVTEQDSKDSTYSLSSTLTLSKADYEKHKVYACEVTHQGLSSPVTKSFNRGEC
As for B1, the ECM binding ratio (standard = 1) worked out at 15.4.

B2: TR01H040-E2702GsKsc/H0610-E2704sEpsc/L0209-k0 (bispecific antibody, human IgG4 S228P, kappa, N297A)
heavy 1: QVQLVESGGGLVQPGRSLRLSCAASGFTFSNAWMHWVRQAPGKGLEWVAQIKDKSQNYATYYAESVKGRFTISRADSKNSIYLQMNSLKTEDTAVYYCRYVHYSASYGVDAWGQGTTVTVSSASTKGPSVFPLAPCSRSTSESTAALGCLVKDYFPEPVTVSWNSGALTSGVHTFPAVLQSSGLYSLSSVVTVPSSSLGTKTYTCNVDHKPSNTKVDKRVESKYGPPCPPCPAPEFRGGPKVFLFPPKPKDTLMISRTPEVTCVVVDVSQEDPEVQFNWYVDGVEVHNAKTKPREEQFASTYRVVSVLTVLHQDWLNGKEYKCKVSNKGLPSSIEKTISKAKGQPREPQVYTLPPSQKEMTKNQVSLTCLVKGFYPSDIAVEWESNGQPENNYKTTPPVLDSDGSFFLYSKLTVDKSRWQEGNVFSCSVMHEALHNRYTQKSLSLSP
heavy 2: QVQLVQSGAEVKKPGASVKVSCKASGYTFTDYEMHWIRQPPGQGLEWIGAIDGKTPDTAYSQKFKGRVTLTADKSTSTAYMELSSLTSEDTAVYYCTRFYSYTYWGQGTLVTVSSASTKGPSVFPLAPCSRSTSESTAALGCLVKDYFPEPVTVSWNSGALTSGVHTFPAVLQSSGLYSLSSVVTVPSSSLGTQTYTCNVDHKPSNTKVDKRVESKYGPPCPPCPAPEFRGGPKVFLFPPKPKDTLMISRTPEVTCVVVDVSQEDPEVQFNWYVDGVEVHNAKTKPREEQFASTYRVVSVLTVLHQDWLNGKEYKCKVSNKGLPSSIEKTISKAKGQPREPQVYTLPPSQEEMTKNQVSLTCLVKGFYPSDIAVEWESNGQPENNYKTTPPVLDSDGSFFLYSKLTVDKSRWQEGNVFSCSVMHEALHNHYTQESLSLSP
light: DIVMTQSPLSLPVTPGEPASISCRSSQSPVHSNRNTYIHWYQQKPGQAPRLLIYKVSNRFSGVPDRFSGSGSGTDFTLKISRVEAEDVGVYYCYQGTQVPYTFGQGTKLEIKRTVAAPSVFIFPPSDEQLKSGTASVVCLLNNFYPREAKVQWKVDNALQSGNSQESVTEQDSKDSTYSLSSTLTLSKADYEKHKVYACEVTHQGLSSPVTKSFNRGEC
As for B2, the ECM binding ratio (standard = 1) came to 7.4.

B3: TR01H040-E2702GsKsc/H0610-E2704sEpsc/L0204-k0 (bispecific antibody, human IgG4 S228P, kappa, N297A)
heavy 1: QVQLVESGGGLVQPGRSLRLSCAASGFTFSNAWMHWVRQAPGKGLEWVAQIKDKSQNYATYYAESVKGRFTISRADSKNSIYLQMNSLKTEDTAVYYCRYVHYSASYGVDAWGQGTTVTVSSASTKGPSVFPLAPCSRSTSESTAALGCLVKDYFPEPVTVSWNSGALTSGVHTFPAVLQSSGLYSLSSVVTVPSSSLGTKTYTCNVDHKPSNTKVDKRVESKYGPPCPPCPAPEFRGGPKVFLFPPKPKDTLMISRTPEVTCVVVDVSQEDPEVQFNWYVDGVEVHNAKTKPREEQFASTYRVVSVLTVLHQDWLNGKEYKCKVSNKGLPSSIEKTISKAKGQPREPQVYTLPPSQKEMTKNQVSLTCLVKGFYPSDIAVEWESNGQPENNYKTTPPVLDSDGSFFLYSKLTVDKSRWQEGNVFSCSVMHEALHNRYTQKSLSLSP
heavy 2: QVQLVQSGAEVKKPGASVKVSCKASGYTFTDYEMHWIRQPPGQGLEWIGAIDGKTPDTAYSQKFKGRVTLTADKSTSTAYMELSSLTSEDTAVYYCTRFYSYTYWGQGTLVTVSSASTKGPSVFPLAPCSRSTSESTAALGCLVKDYFPEPVTVSWNSGALTSGVHTFPAVLQSSGLYSLSSVVTVPSSSLGTQTYTCNVDHKPSNTKVDKRVESKYGPPCPPCPAPEFRGGPKVFLFPPKPKDTLMISRTPEVTCVVVDVSQEDPEVQFNWYVDGVEVHNAKTKPREEQFASTYRVVSVLTVLHQDWLNGKEYKCKVSNKGLPSSIEKTISKAKGQPREPQVYTLPPSQEEMTKNQVSLTCLVKGFYPSDIAVEWESNGQPENNYKTTPPVLDSDGSFFLYSKLTVDKSRWQEGNVFSCSVMHEALHNHYTQESLSLSP
light: DIVMTQSPLSLPVTPGEPASISCRSSQSPVHSNRNTYLHWYQQKPGQAPRLLIYKVSNRFRGVPDRFSGSGSGTDFTLKISRVEAEDVGVYYCGQGTQVPYTFGQGTKLEIKRTVAAPSVFIFPPSDEQLKSGTASVVCLLNNFYPREAKVQWKVDNALQSGNSQESVTEQDSKDSTYSLSSTLTLSKADYEKHKVYACEVTHQGLSSPVTKSFNRGEC
With B3, the ECM binding ratio (standard = 1) was 4.4.

B4: TR01H067-E2702GsKsc/GCH054-E2704sEpsc/L0212-k0 (bispecific antibody, human IgG4 S228P, kappa, N297A)
heavy 1: QVQLVESGGGLVQPGRSLRLSCAASGFTFSNAWMHWVRQAPGKGLEWVAQIKDKSQNYATYYAESVKGRFTISRDDSKNSLYLQMNSLKTEDTAVYYCRYVHYAASYGVDAWGQGTTVTVSSASTKGPSVFPLAPCSRSTSESTAALGCLVKDYFPEPVTVSWNSGALTSGVHTFPAVLQSSGLYSLSSVVTVPSSSLGTKTYTCNVDHKPSNTKVDKRVESKYGPPCPPCPAPEFRGGPKVFLFPPKPKDTLMISRTPEVTCVVVDVSQEDPEVQFNWYVDGVEVHNAKTKPREEQFASTYRVVSVLTVLHQDWLNGKEYKCKVSNKGLPSSIEKTISKAKGQPREPQVYTLPPSQKEMTKNQVSLTCLVKGFYPSDIAVEWESNGQPENNYKTTPPVLDSDGSFFLYSKLTVDKSRWQEGNVFSCSVMHEALHNRYTQKSLSLSP
heavy 2: QVQLVQSGAEVKKPGASVTVSCKASGYTFTDYEMHWIRQPPGEGLEWIGAIDGETPDTAYSEKFKGRVTLTADKSTSTAYMELSSLTSEDTAVYYCTRFYSYTYWGQGTLVTVSSASTKGPSVFPLAPCSRSTSESTAALGCLVKDYFPEPVTVSWNSGALTSGVHTFPAVLQSSGLYSLSSVVTVPSSSLGTQTYTCNVDHKPSNTKVDKRVESKYGPPCPPCPAPEFRGGPKVFLFPPKPKDTLMISRTPEVTCVVVDVSQEDPEVQFNWYVDGVEVHNAKTKPREEQFASTYRVVSVLTVLHQDWLNGKEYKCKVSNKGLPSSIEKTISKAKGQPREPQVYTLPPSQEEMTKNQVSLTCLVKGFYPSDIAVEWESNGQPENNYKTTPPVLDSDGSFFLYSKLTVDKSRWQEGNVFSCSVMHEALHNHYTQESLSLSP
light: DIVMTQSPLSLPVTPGEPASISCRPSQSPVHSNRNTYLHWYQQKPGQAPRLLIYKVSNRFSGVPDRFSGSGSGTDFTLKISRVEAEDVGVYYCYQGTQVPYTFGQGTKLEIKRTVAAPSVFIFPPSDEQLKSGTASVVCLLNNFYPREAKVQWKVDNALQSGNSQESVTEQDSKDSTYSLSSTLTLSKADYEKHKVYACEVTHQGLSSPVTKSFNRGEC
For B4, the ECM binding ratio (standard = 1) came out at 3.3.
